The results in this text go back to US6060451A, “Thrombin inhibitors based on the amino acid sequence of hirudin” (The National Research Council of Canada, priority 1995, dated 2000).

Assay [1] has as its system activated partial thromboplastin time. Kind of assay: Increase in APTT, bolus plus infusion model. It is filed as in vivo, rat. Details: Infusion Dose needed to cause 2-4 fold increase in APTT: unit not given here. The settings on record: intravenous bolus followed by infusion.
Assay [2] deals with arteriovenous shunt occlusion. Kind of assay: Antithrombotic activity in the arteriovenous shunt model. As to conditions: rats, 5 min after intravenous administration.
Assay [3] deals with carotid artery thrombosis. Kind of assay: Ferric chloride injury-induced thrombosis model in carotid artery. As to conditions: rat carotid artery, FeCl3 injury; control patency time 19 ± 1 min.
Experimental: Species: Rat, male, Sprague-Dawley.
Animals were laid on a heating pad which was maintained at 37° C. The carotid artery was approached through a midline cervical incision. Carefully blunt dissection was used to expose and isolate the vessel from the carotid sheath. […] The vessel temperature was monitored for 60 minutes after application of FeCl3. […] The site of the experiment was covered with aluminum foil in order to protect the FeCl3 from degradation by light.
All the samples were kept on ice and centrifuged as soon as possible at 2000 Rpm for 10 min., 4° C. The plasma was analyzed in duplicate for activated partial thromboplastin time on a haemostasis analyzer (STAGO ST4™).
From a group of four animals, two arteries were stored at -80° C. for further analysis. The others were observed under a light microscope at 40× (Leica™) for quantification of the occlusion (complete, partial, no occlusion).
In some studies, the animal was receiving the compound by i.v. infusion instead of a bolus. In this case, the jugulars and femoral veins were cannulated with Sylastic tubing (I.D. 0.025IN). This left jugular was used for blood sampling and the right one for the infusion line. The compound was infused 30 minutes before injury and then for an other 30 minutes post-injury. Blood samples were taken at time 0, 30 and 60 minutes for APTT test and thrombin test (1 ml of blood/90 ul of citrated buffer).

B1: r-Hirudin: recombinant hirudin (HV-2), thrombin inhibitor protein of the leech Hirudo medicinalis (protein)
chain: ITYTDCTESGQNLCLCEGSNVCGKGNKCILGSNGKGNQCVTGEGTPNPESHNNGDFEEIPEEYLQ
As to B1, in assay [1], the “Bolus Dose needed to cause 2-4 fold increase in APTT” value is 0.15 mg/kg and the “Infusion Dose needed to cause 2-4 fold increase in APTT” value was 15. Further, the “ED15 (dose which causes a prolongation of the time until occlusion of the shunt by 15 min)” value in assay [2] was determined as 1.42 mg/kg. Moreover, the “Dose to double patency time” value in assay [3] was 1 mg/kg.
